The text below walks through data of article PMC9428257.

The experiment addresses T1, human APRIL (a proliferation-inducing ligand) (human), O75888.
T1 chain: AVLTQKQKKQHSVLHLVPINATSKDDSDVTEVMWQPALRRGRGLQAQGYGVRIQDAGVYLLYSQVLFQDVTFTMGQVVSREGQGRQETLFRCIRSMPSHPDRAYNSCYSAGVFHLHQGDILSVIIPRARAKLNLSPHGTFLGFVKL
Kind of experiment: FACS. The note with it: domain or fragment; chains chain; remark: other sources report otherwise.

B1: yeast-displayed wild-type sBCMA (human BCMA extracellular domain, Met1-Ala54), Q02223 1-54 (protein)
chain: MLQMAGQCSQNEYFDSLLHACIPCQLRCSSNTPPLTCQRYCNASVTNSVKGTNA
In the case of B1, the Kd worked out at 0.025 nM.
